Data: PMC9475207, “Neural crest cell-placodal neuron interactions are mediated by Cadherin-7 and N-cadherin during early chick trigeminal ganglion assembly” (F1000Research, 2022)

T1: N-cadherin GFP11 (chick, UniProt P10288 165-912)
T1 construct: Synthesized by GenScript; also called N-cad GFP11; N-cad GFP 11; source: CHO cells, transfected, in cells; chick embryo, electroporated in ovo into trigeminal placode cells; not shown: split GFP subunit 11 (GFP11), N-terminal, kept
T1 sequence (looked up): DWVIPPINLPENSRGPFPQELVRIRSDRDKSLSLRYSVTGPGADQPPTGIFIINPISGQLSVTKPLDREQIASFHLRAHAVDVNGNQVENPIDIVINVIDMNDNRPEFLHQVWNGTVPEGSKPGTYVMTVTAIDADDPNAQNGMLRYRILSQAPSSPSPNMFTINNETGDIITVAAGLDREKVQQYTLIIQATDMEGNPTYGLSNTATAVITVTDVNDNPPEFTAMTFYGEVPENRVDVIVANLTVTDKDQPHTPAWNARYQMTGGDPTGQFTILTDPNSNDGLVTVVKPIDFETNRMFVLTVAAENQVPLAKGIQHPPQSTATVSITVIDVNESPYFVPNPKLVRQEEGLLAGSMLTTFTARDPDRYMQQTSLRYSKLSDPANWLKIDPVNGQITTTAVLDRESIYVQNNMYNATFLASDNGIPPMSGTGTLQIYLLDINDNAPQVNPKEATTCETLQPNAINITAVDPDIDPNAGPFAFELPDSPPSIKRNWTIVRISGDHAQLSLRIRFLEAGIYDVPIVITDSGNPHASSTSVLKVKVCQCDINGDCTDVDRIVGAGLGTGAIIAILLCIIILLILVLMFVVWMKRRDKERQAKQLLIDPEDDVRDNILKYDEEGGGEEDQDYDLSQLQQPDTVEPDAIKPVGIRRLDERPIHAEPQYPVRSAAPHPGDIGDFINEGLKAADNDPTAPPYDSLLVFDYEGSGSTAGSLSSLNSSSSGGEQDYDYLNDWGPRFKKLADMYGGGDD

B1: Cadherin-7 GFP1-10 (natural protein, chick, UniProt Q90763 48-785, looked up)
chain: SWVWNQFFVLEEYMGSDPLYVGKLHSDVDKGDGSIKYILSGEGASSIFIIDENTGDIHATKRLDREEQAYYTLRAQAHDRLTNKPVEPESEFVIKIQDINDNEPKFLDGPYTAGVPEMSPVGTSVVQVTATDADDPTYGNSARVVYSILQGQPYFSVEPKTGIIKTALPNMDREAKDQYLLVIQAKDMVGQNGGLSGTTSVTVTLTDVNDNPPRFPRRSYQYNVPESLPLASVVARIKAADADVGPNAEMEYKIVDGDGLGVFKISVDKDTQEGIITIQKELDFEAKTSYTLRIEAANMHVDPRFLSLGPFSDMTTVKIIVEDVDEPPVFTSRLYSMVVSEAAKVGTIIGTVAAHDPDASNSPVRYSIDRNTDLERYFNIDANSGVITTAKSLDRETNAVHNITVLAMESQNPAQIGRGYVAITILDINDNAPEFAMEYETTVCENAQPGQIIQKISAIDKDDPPNGHQFYFSLTAEAANNHNFTLQDNKDNTATVLTRRNGFRRQEQSVFYLPIFIVDSGSPSLSSTNTLTIRVCDCDADGIAQTCNAEAYILPAGLSTGALIAILACVLTLLVLVLLIVTMRRRKKEPLIFDEERDIRENIVRYDDEGGGEEDTEAFDMAALRNLNIIRDTKTRRDVTPEIQFLSRPTFKSIPDNVIFREFIWERLKEADVDPCAPPYDSLQTYAFEGNGSVAESLSSLDSISSNSDQNYDYLSDWGPRFKRLADMYGSGPDCLYS
notes: Synthesized by GenScript; also called Cad7 GFP1-10; source: CHO cells, transfected, in cells; chick embryo, electroporated in ovo into premigratory neural crest cells; not shown: split GFP subunits 1-10 (GFP1-10), N-terminal, kept
B2: N-cadherin GFP1-10 (natural protein, chick, UniProt P10288 165-912, looked up)
chain: DWVIPPINLPENSRGPFPQELVRIRSDRDKSLSLRYSVTGPGADQPPTGIFIINPISGQLSVTKPLDREQIASFHLRAHAVDVNGNQVENPIDIVINVIDMNDNRPEFLHQVWNGTVPEGSKPGTYVMTVTAIDADDPNAQNGMLRYRILSQAPSSPSPNMFTINNETGDIITVAAGLDREKVQQYTLIIQATDMEGNPTYGLSNTATAVITVTDVNDNPPEFTAMTFYGEVPENRVDVIVANLTVTDKDQPHTPAWNARYQMTGGDPTGQFTILTDPNSNDGLVTVVKPIDFETNRMFVLTVAAENQVPLAKGIQHPPQSTATVSITVIDVNESPYFVPNPKLVRQEEGLLAGSMLTTFTARDPDRYMQQTSLRYSKLSDPANWLKIDPVNGQITTTAVLDRESIYVQNNMYNATFLASDNGIPPMSGTGTLQIYLLDINDNAPQVNPKEATTCETLQPNAINITAVDPDIDPNAGPFAFELPDSPPSIKRNWTIVRISGDHAQLSLRIRFLEAGIYDVPIVITDSGNPHASSTSVLKVKVCQCDINGDCTDVDRIVGAGLGTGAIIAILLCIIILLILVLMFVVWMKRRDKERQAKQLLIDPEDDVRDNILKYDEEGGGEEDQDYDLSQLQQPDTVEPDAIKPVGIRRLDERPIHAEPQYPVRSAAPHPGDIGDFINEGLKAADNDPTAPPYDSLLVFDYEGSGSTAGSLSSLNSSSSGGEQDYDYLNDWGPRFKKLADMYGGGDD
notes: Synthesized by GenScript; also called N-cad GFP1-10; N-cad GFP 1-10; source: CHO cells, transfected, in cells; chick embryo, electroporated in ovo into trigeminal placode cells; not shown: split GFP subunits 1-10 (GFP1-10), N-terminal, kept
B3: Cadherin-7 GFP11 (natural protein, chick, UniProt Q90763 48-785, looked up)
chain: SWVWNQFFVLEEYMGSDPLYVGKLHSDVDKGDGSIKYILSGEGASSIFIIDENTGDIHATKRLDREEQAYYTLRAQAHDRLTNKPVEPESEFVIKIQDINDNEPKFLDGPYTAGVPEMSPVGTSVVQVTATDADDPTYGNSARVVYSILQGQPYFSVEPKTGIIKTALPNMDREAKDQYLLVIQAKDMVGQNGGLSGTTSVTVTLTDVNDNPPRFPRRSYQYNVPESLPLASVVARIKAADADVGPNAEMEYKIVDGDGLGVFKISVDKDTQEGIITIQKELDFEAKTSYTLRIEAANMHVDPRFLSLGPFSDMTTVKIIVEDVDEPPVFTSRLYSMVVSEAAKVGTIIGTVAAHDPDASNSPVRYSIDRNTDLERYFNIDANSGVITTAKSLDRETNAVHNITVLAMESQNPAQIGRGYVAITILDINDNAPEFAMEYETTVCENAQPGQIIQKISAIDKDDPPNGHQFYFSLTAEAANNHNFTLQDNKDNTATVLTRRNGFRRQEQSVFYLPIFIVDSGSPSLSSTNTLTIRVCDCDADGIAQTCNAEAYILPAGLSTGALIAILACVLTLLVLVLLIVTMRRRKKEPLIFDEERDIRENIVRYDDEGGGEEDTEAFDMAALRNLNIIRDTKTRRDVTPEIQFLSRPTFKSIPDNVIFREFIWERLKEADVDPCAPPYDSLQTYAFEGNGSVAESLSSLDSISSNSDQNYDYLSDWGPRFKRLADMYGSGPDCLYS
notes: Synthesized by GenScript; also called Cad7 GFP11; Cad711; source: CHO cells, transfected, in cells; chick embryo, electroporated in ovo into premigratory neural crest cells; not shown: split GFP subunit 11 (GFP11), N-terminal, kept

How the values were obtained:
Experiment in all cases: split reporter (BiFC, NanoBiT); GRASP (split GFP1-10 / GFP11 on the cadherin extracellular domain); both constructs co-transfected into CHO cells (in cis); GFP fluorescence by confocal imaging, GFP+ cells/DAPI+ cells
Details in all cases: partners not purified
N-cadherin GFP11 = target: T1, N-cadherin GFP11
Cadherin-7 GFP11 = target: B3
N-cadherin GFP1-10 = target: B2

Binder	percent GFP-positive cells (GFP+ cells/DAPI+ cells) (N-cadherin GFP11) [%]	percent GFP-positive cells (GFP+ cells/DAPI+ cells) (Cadherin-7 GFP11) [%]	percent GFP-positive cells (GFP+ cells/DAPI+ cells) (N-cadherin GFP1-10) [%]
B1	8.9	10.5	–
B2	13.2	–	–
B3	–	–	5.76
